Measured values reported in patent US20220363758A1 (SORRENTO THERAPEUTICS, published 2022).
Numbering of substitutions follows the chain as printed. Numbers in names are those of the source.

B1: CD38 D8-3A1/CD3 (M48I/K67R) bispecific antibody (bispecific antibody, human IgG1, lambda, L234A L235A)
chain: EVQLVQSGAEVKKPGASVKVSCKASGYTFISYTMHWVRQAPGQGLEWIGYINPRSGYTHYNQKLKDRATLTADKSASTAYMELSSLRSEDTAVYYCARSAYYDYDGFAYWGQGTLVTVSSGGGGSGGGGSGGGGSGGGGSDIQMTQSPSSLSASVGDRVTITCSASSSVSYMNWYQQKPGKAPKRLIYDTSKLASGVPSRFSGSGSGTDFTLTISSLQPEDFATYYCQQWSSNPPTFGGGTKVEIKGGSGGDKTHTCPPCPAPEAAGGPSVFLFPPKPKDTLMISRTPEVTCVVVDVSHEDPEVKFNWYVDGVEVHNAKTKPREEQYNSTYRVVSVLTVLHQDWLNGKEYKCKVSNKALPAPIEKTISKAKGQPREPQVYTLPPSREEMTKNQVSLSCAVKGFYPSDIAVEWESNGQPENNYKTTPPVLDSDGSFFLVSKLTVDKSRWQQGNVFSCSVMHEALHNHYTQKSLSLSPGK
heavy: QVQLVESGGGVVQPGGSLRLSCAASGFNVRTKYVHWVRQAPGKGLEWVSGIYSDPYTSYAYSDSVKGRFTISRDMSKNTVYLQMNRLRAEDTAVYYCARETNTGFSNSWYLDFWGQGTLVTVSSASTKGPSVFPLAPSSKSTSGGTAALGCLVKDYFPEPVTVSWNSGALTSGVHTFPAVLQSSGLYSLSSVVTVPSSSLGTQTYICNVNHKPSNTKVDKRVEPKSCDKTHTCPPCPAPEAAGGPSVFLFPPKPKDTLMISRTPEVTCVVVDVSHEDPEVKFNWYVDGVEVHNAKTKPREEQYNSTYRVVSVLTVLHQDWLNGKEYKCKVSNKALPAPIEKTISKAKGQPREPQVYTLPPSREEMTKNQVSLWCLVKGFYPSDIAVEWESNGQPENNYKTTPPVLDSDGSFFLYSKLTVDKSRWQQGNVFSCSVMHEALHNHYTQKSLSLSPGK
light: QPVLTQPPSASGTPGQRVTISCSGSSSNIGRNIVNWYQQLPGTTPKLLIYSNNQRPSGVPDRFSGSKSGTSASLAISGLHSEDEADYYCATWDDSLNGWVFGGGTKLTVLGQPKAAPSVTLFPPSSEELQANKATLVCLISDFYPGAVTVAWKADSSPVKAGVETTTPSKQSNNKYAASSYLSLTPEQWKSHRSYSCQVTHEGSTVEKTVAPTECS
B2: CD38 D8/CD3 (M48I/K67R) bispecific antibody (bispecific antibody, human IgG1, lambda, L234A L235A)
chain: B1 chain
heavy: B1 heavy with N28I, R30S, K32N
light: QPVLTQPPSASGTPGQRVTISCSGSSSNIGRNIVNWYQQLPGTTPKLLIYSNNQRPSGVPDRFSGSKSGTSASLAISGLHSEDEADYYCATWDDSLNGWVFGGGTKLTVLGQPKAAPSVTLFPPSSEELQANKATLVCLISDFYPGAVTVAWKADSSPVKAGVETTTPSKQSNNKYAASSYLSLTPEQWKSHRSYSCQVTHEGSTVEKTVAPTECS
B3: CD38 A2/CD3 (M48I/K67R) bispecific antibody (bispecific antibody, human IgG1, lambda, L234A L235A)
chain: B1 chain
heavy: QVQLVESGGGLVKPGGSLRLSCAASGFTFSDDYMSWIRQAPGKGLEWVASVSNGRPTTYYADSVRGRFTISRDNAKNSLYLQMNSLRAEDTAVYYCAREDWGGEFTDWGQGTLVTVSSASTKGPSVFPLAPSSKSTSGGTAALGCLVKDYFPEPVTVSWNSGALTSGVHTFPAVLQSSGLYSLSSVVTVPSSSLGTQTYICNVNHKPSNTKVDKRVEPKSCDKTHTCPPCPAPEAAGGPSVFLFPPKPKDTLMISRTPEVTCVVVDVSHEDPEVKFNWYVDGVEVHNAKTKPREEQYNSTYRVVSVLTVLHQDWLNGKEYKCKVSNKALPAPIEKTISKAKGQPREPQVYTLPPSREEMTKNQVSLWCLVKGFYPSDIAVEWESNGQPENNYKTTPPVLDSDGSFFLYSKLTVDKSRWQQGNVFSCSVMHEALHNHYTQKSLSLSPGK
light: not shown
B4: CD38 D8-3E1/CD3 (M48I/K67R) bispecific antibody (bispecific antibody, human IgG1, lambda, L234A L235A)
chain: B1 chain
heavy: B1 heavy with G26K, F27L, R30S, T31P
light: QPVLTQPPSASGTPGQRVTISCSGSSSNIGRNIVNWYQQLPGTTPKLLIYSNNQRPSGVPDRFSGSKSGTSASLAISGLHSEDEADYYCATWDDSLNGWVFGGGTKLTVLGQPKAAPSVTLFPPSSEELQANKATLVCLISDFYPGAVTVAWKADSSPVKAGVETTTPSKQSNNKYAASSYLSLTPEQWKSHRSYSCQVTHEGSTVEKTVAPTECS
notes: also called CD38 D8-3E1/CD3 (M481/K67R)
B5: CD38 D8-1B5/CD3 (M48I/K67R) bispecific antibody (bispecific antibody, human IgG1, lambda, L234A L235A)
chain: B1 chain
heavy: B1 heavy with F27L, V29A, K32N
light: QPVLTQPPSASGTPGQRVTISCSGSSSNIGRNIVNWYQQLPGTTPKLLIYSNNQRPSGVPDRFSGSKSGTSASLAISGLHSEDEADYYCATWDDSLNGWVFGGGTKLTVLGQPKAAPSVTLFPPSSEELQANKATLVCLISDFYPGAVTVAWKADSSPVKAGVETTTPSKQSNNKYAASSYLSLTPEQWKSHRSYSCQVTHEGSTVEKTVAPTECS
B6: CD38A2-3H10m1/CD3tsm #1-scFvg1LALA-knob-in-hole bispecific antibody (bispecific antibody, human IgG1, lambda, L234A L235A)
chain: B1 chain
heavy: B3 heavy with D100G, G102S
light: not shown
notes: Three chains: anti-CD3 scFv-Fc (hole, LALA), anti-CD38 heavy chain (knob, LALA) and anti-CD38 lambda light chain; also called CD38 A2-3H10m1 assembled with CD3-scFv tsm #1; CD38A2-3H10m1/CD3tsm #1 IgG-scFv
B7: CD38 D8-3A1/CD3 mAb (antibody, V domains shown)
VH: QVQLVESGGGVVQPGGSLRLSCAASGFNVRTKYVHWVRQAPGKGLEWVSGIYSDPYTSYAYSDSVKGRFTISRDMSKNTVYLQMNRLRAEDTAVYYCARETNTGFSNSWYLDFWGQGTLVTVSS
VL: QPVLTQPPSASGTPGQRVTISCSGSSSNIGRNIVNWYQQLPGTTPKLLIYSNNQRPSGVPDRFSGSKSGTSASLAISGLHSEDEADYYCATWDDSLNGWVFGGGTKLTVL
notes: stands beside the row 'CD38 D8-3A1/CD3 IgG-scFv', so it is another molecule than m27
B8: Hu291 mAb (antibody, V domains shown)
VH: EVQLVQSGAEVKKPGASVKVSCKASGYTFISYTMHWVRQAPGQGLEWMGYINPRSGYTHYNQKLKDKATLTADKSASTAYMELSSLRSEDTAVYYCARSAYYDYDGFAYWGQGTLVTVSS
VL: DIQMTQSPSSLSASVGDRVTITCSASSSVSYMNWYQQKPGKAPKRLIYDTSKLASGVPSRFSGSGSGTDFTLTISSLQPEDFATYYCQQWSSNPPTFGGGTKVEIK
notes: also called Hum291 anti-CD3 mAb; HuM291 mAb
B9: CD38 A2-3H10m1 assembled with CD3-scFv tsm #4 (bispecific antibody, human IgG1, lambda, L234A L235A)
chain: B1 chain with I30V
heavy: B3 heavy with D100G, G102S
light: not shown
B10: CD38 A2-3H10m1 assembled with CD3-scFv tsm #3 (bispecific antibody, human IgG1, lambda, L234A L235A)
chain: B1 chain with R67K
heavy: B3 heavy with D100G, G102S
light: not shown
B11: CD38 A2-3H10m1 assembled with CD3-scFv tsm #2 (bispecific antibody, human IgG1, lambda, L234A L235A)
chain: B1 chain with I30V, I48M
heavy: B3 heavy with D100G, G102S
light: not shown
B12: CD38 A2-3H10m1 assembled with CD3-scFv tsm #5 (bispecific antibody, human IgG1, lambda, L234A L235A)
chain: B1 chain with I48M
heavy: B3 heavy with D100G, G102S
light: not shown
B13: CD38 A2-3H10m1 assembled with CD3-scFv tsm #6 (bispecific antibody, human IgG1, lambda, L234A L235A)
chain: B1 chain with I30V, I48M, R67K
heavy: B3 heavy with D100G, G102S
light: not shown
B14: CD38 A2-3H10m1 assembled with CD3-scFv tsm #7 (bispecific antibody, human IgG1, lambda, L234A L235A)
chain: B1 chain with I48M, R67K
heavy: B3 heavy with D100G, G102S
light: not shown
notes: tsm #7 carries the wild type HuM291 VH
B15: CD3-tsm#7 (WT) scFv-Fc fusion (Fc fusion)
chain: B1 chain with I48M, R67K
notes: Wild type HuM291 VH; As for CD3-tsm#1: scFv g1 Fc fusion chain; also called wild type Hum291 scFv
B16: CD3-tsm#6 (I30V) scFv-Fc fusion (Fc fusion)
chain: B1 chain with I30V, I48M, R67K
notes: As for CD3-tsm#1: scFv g1 Fc fusion chain; also called CD3-tsm#6 ( (BOV))
B17: CD3-tsm#3 (M48I) scFv-Fc fusion (Fc fusion)
chain: B1 chain with R67K
notes: As for CD3-tsm#1: scFv g1 Fc fusion chain
B18: CD3-tsm#1 (M48I/K67R) scFv-Fc fusion (Fc fusion)
chain: B1 chain
notes: also called CD3 scFv-Fc fusion, VH variant M48I/K67R, tsm #1
B19: CD3-tsm#2 (I30V/K67R) scFv-Fc fusion (Fc fusion)
chain: B1 chain with I30V, I48M
notes: as for B17
B20: CD3-tsm#5 (K67R) scFv-Fc fusion (Fc fusion)
chain: B1 chain with I48M
notes: as for B17
B21: CD3-tsm#4 (I30V/M48I/K67R) scFv-Fc fusion (Fc fusion)
chain: B1 chain with I30V
notes: as for B17

Each binder was assayed against T1, Recombinant human CD38-his tag (human, UniProt P28907 43-300) (assay: SPR (Biacore T200), antibody as captured ligand, CD38 as sample, 1:1 binding model).
T1 construct: also called recombinant CD38 antigen; CD38 antigen; not shown: his tag

| Kd | koff | kon | Binder |
| --- | --- | --- | --- |
| 4.95 nM | 0.00393 s⁻¹ | 794000 M⁻¹ s⁻¹ | B1 |
| 20.3 nM | 0.011 s⁻¹ | 541000 M⁻¹ s⁻¹ | B2 |
| 12.3 nM | 0.00637 s⁻¹ | 517000 M⁻¹ s⁻¹ | B3 |
| 6.55 nM | 0.00565 s⁻¹ | 862000 M⁻¹ s⁻¹ | B4 |
| 4.52 nM | 0.00388 s⁻¹ | 859000 M⁻¹ s⁻¹ | B5 |
| 1.51 nM | 0.00203 s⁻¹ | 1.35e+06 M⁻¹ s⁻¹ | B6 |
| 9.14 nM | 0.00372 s⁻¹ | 406000 M⁻¹ s⁻¹ | B7 |

These binders were tested against T2, CD3 antigen expressed on cells (human CD3 epsilon) (human, UniProt P07766 23-207) (assay: flow cytometry on CD38(-) primary human T cells, mouse anti-human Fc-APC detection, GeoMean RL-H of singlets).
T2 construct: also called cell surface CD3 antigen; CD3 on T cells

| EC50 (read off the curve) | Binder |
| --- | --- |
| ~0.02 ng/mL | B8 |
| ~0.1 ng/mL | B9 |
| ~0.2 ng/mL | B10 |
| ~1 ng/mL | B11 |
| ~0.2 ng/mL | B6 |

Target: T2, CD3 antigen expressed on cells (human …)
Assay: as above
Remark: another data set of the same source

| EC50 (read off the curve) | Binder |
| --- | --- |
| ~0.008 ng/mL | B8 |
| ~0.1 ng/mL | B12 |
| ~0.1 ng/mL | B13 |
| ~0.2 ng/mL | B14 |

The binders below were run against T2, CD3 antigen expressed on cells (human …) (assay: flow cytometry on CD3-bearing cells (cell type not given)).

| EC50 | Binder |
| --- | --- |
| 200 ng/mL | B15 |
| 100 ng/mL | B16 |
| 200 ng/mL | B17 |
| 200 ng/mL | B18 |
| 1500 ng/mL | B19 |
| 100 ng/mL | B20 |
| 100 ng/mL | B21 |
